Source: article PMC10540216, “Activity Guided Azide-methyllysine Photo-trapping for Substrate Profiling of Lysine Demethylases” (Journal of the American Chemical Society, 2023)

B1: NOMO1_HUMAN (protein, UniProt Q15155 32-1222, looked up)
BOS complex subunit NOMO1: SEDIVVGCGGFVKSDVEINYSLIEIKLYTKHGTLKYQTDCAPNNGYFMIPLYDKGDFILKIEPPLGWSFEPTTVELHVDGVSDICTKGGDINFVFTGFSVNGKVLSKGQPLGPAGVQVSLRNTGTEAKIQSTVTQPGGKFAFFKVLPGDYEILATHPTWALKEASTTVRVTNSNANAASPLIVAGYNVSGSVRSDGEPMKGVKFLLFSSLVTKEDVLGCNVSPVPGFQPQDESLVYLCYTVSREDGSFSFYSLPSGGYTVIPFYRGERITFDVAPSRLDFTVEHDSLKIEPVFHVMGFSVTGRVLNGPEGDGVPEAVVTLNNQIKVKTKADGSFRLENITTGTYTIHAQKEHLYFETVTIKIAPNTPQLADIIATGFSVCGQISIIRFPDTVKQMNKYKVVLSSQDKDKSLVTVETDAHGSFCFKAKPGTYKVQVMVPEAETRAGLTLKPQTFPLTVTNRPMMDVAFVQFLASVSGKVSCLDTCGDLLVTLQSLSRQGEKRSLQLSGKVNAMTFTFDNVLPGKYKISIMHEDWCWKNKSLEVEVLEDDMSAVEFRQTGYMLRCSLSHAITLEFYQDGNGRENVGIYNLSKGVNRFCLSKPGVYKVTPRSCHRFEQAFYTYDTSSPSILTLTAIRHHVLGTITTDKMMDVTVTIKSSIDSEPALVLGPLKSVQELRREQQLAEIEARRQEREKNGNEEGEERMTKPPVQEMVDELQGPFSYDFSYWARSGEKITVTPSSKELLFYPPSMEAVVSGESCPGKLIEIHGKAGLFLEGQIHPELEGVEIVISEKGASSPLITVFTDDKGAYSVGPLHSDLEYTVTSQKEGYVLTAVEGTIGDFKAYALAGVSFEIKAEDDQPLPGVLLSLSGGLFRSNLLTQDNGILTFSNLSPGQYYFKPMMKEFRFEPSSQMIEVQEGQNLKITITGYRTAYSCYGTVSSLNGEPEQGVAMEAVGQNDCSIYGEDTVTDEEGKFRLRGLLPGCVYHVQLKAEGNDHIERALPHHRVIEVGNNDIDDVNIIVFRQINQFDLSGNVITSSEYLPTLWVKLYKSENLDNPIQTVSLGQSLFFHFPPLLRDGENYVVLLDSTLPRSQYDYILPQVSFTAVGYHKHITLIFNPTRKLPEQDIAQGSYIALPLTLLVLLAGYNHDKLIPLLLQLTSRLQGVRALGQAASDNSGPEDAKRQAKKQKTRRT
B2: RB12B_HUMAN (protein, UniProt Q8IXT5 1-1001, looked up)
RNA-binding protein 12B: MAVVIRLLGLPFIAGPVDIRHFFTGLTIPDGGVHIIGGEIGEAFIIFATDEDARRAISRSGGFIKDSSVELFLSSKAEMQKTIEMKRTDRVGRGRPGSGTSGVDSLSNFIESVKEEASNSGYGSSINQDAGFHTNGTGHGNLRPRKTRPLKAENPYLFLRGLPYLVNEDDVRVFFSGLCVDGVIFLKHHDGRNNGDAIVKFASCVDASGGLKCHRSFMGSRFIEVMQGSEQQWIEFGGNAVKEGDVLRRSEEHSPPRGINDRHFRKRSHSKSPRRTRSRSPLGFYVHLKNLSLSIDERDLRNFFRGTDLTDEQIRFLYKDENRTRYAFVMFKTLKDYNTALSLHKTVLQYRPVHIDPISRKQMLKFIARYEKKRSGSLERDRPGHVSQKYSQEGNSGQKLCIYIRNFPFDVTKVEVQKFFADFLLAEDDIYLLYDDKGVGLGEALVKFKSEEQAMKAERLNRRRFLGTEVLLRLISEAQIQEFGVNFSVMSSEKMQARSQSRERGDHSHLFDSKDPPIYSVGAFENFRHQLEDLRQLDNFKHPQRDFRQPDRHPPEDFRHSSEDFRFPPEDFRHSPEDFRRPREEDFRRPSEEDFRRPWEEDFRRPPEDDFRHPREEDWRRPLEEDWRRPLEEDFRRSPTEDFRQLPEEDFRQPPEEDLRWLPEEDFRRPPEEDWRRPPEEDFRRPLQGEWRRPPEDDFRRPPEEDFRHSPEEDFRQSPQEHFRRPPQEHFRRPPPEHFRRPPPEHFRRPPPEHFRRPPPEHFRRPPPEHFRRPPPEHFRRPPQEHFRRPPQEHFRRSREEDFRHPPDEDFRGPPDEDFRHPPDEDFRSPQEEDFRCPSDEDFRQLPEEDLREAPEEDPRLPDNFRPPGEDFRSPPDDFRSHRPFVNFGRPEGGKFDFGKHNMGSFPEGRFMPDPKINCGSGRVTPIKIMNLPFKANVNEILDFFHGYRIIPDSVSIQYNEQGLPTGEAIVAMINYNEAMAAIKDLNDRPVGPRKVKLTLL
B3: SMC1A_HUMAN (protein, UniProt Q14683 1-1233, looked up)
Structural maintenance of …: MGFLKLIEIENFKSYKGRQIIGPFQRFTAIIGPNGSGKSNLMDAISFVLGEKTSNLRVKTLRDLIHGAPVGKPAANRAFVSMVYSEEGAEDRTFARVIVGGSSEYKINNKVVQLHEYSEELEKLGILIKARNFLVFQGAVESIAMKNPKERTALFEEISRSGELAQEYDKRKKEMVKAEEDTQFNYHRKKNIAAERKEAKQEKEEADRYQRLKDEVVRAQVQLQLFKLYHNEVEIEKLNKELASKNKEIEKDKKRMDKVEDELKEKKKELGKMMREQQQIEKEIKEKDSELNQKRPQYIKAKENTSHKIKKLEAAKKSLQNAQKHYKKRKGDMDELEKEMLSVEKARQEFEERMEEESQSQGRDLTLEENQVKKYHRLKEEASKRAATLAQELEKFNRDQKADQDRLDLEERKKVETEAKIKQKLREIEENQKRIEKLEEYITTSKQSLEEQKKLEGELTEEVEMAKRRIDEINKELNQVMEQLGDARIDRQESSRQQRKAEIMESIKRLYPGSVYGRLIDLCQPTQKKYQIAVTKVLGKNMDAIIVDSEKTGRDCIQYIKEQRGEPETFLPLDYLEVKPTDEKLRELKGAKLVIDVIRYEPPHIKKALQYACGNALVCDNVEDARRIAFGGHQRHKTVALDGTLFQKSGVISGGASDLKAKARRWDEKAVDKLKEKKERLTEELKEQMKAKRKEAELRQVQSQAHGLQMRLKYSQSDLEQTKTRHLALNLQEKSKLESELANFGPRINDIKRIIQSREREMKDLKEKMNQVEDEVFEEFCREIGVRNIREFEEEKVKRQNEIAKKRLEFENQKTRLGIQLDFEKNQLKEDQDKVHMWEQTVKKDENEIEKLKKEEQRHMKIIDETMAQLQDLKNQHLAKKSEVNDKNHEMEEIRKKLGGANKEMTHLQKEVTAIETKLEQKRSDRHNLLQACKMQDIKLPLSKGTMDDISQEEGSSQGEDSVSGSQRISSIYAREALIEIDYGDLCEDLKDAQAEEEIKQEMNTLQQKLNEQQSVLQRIAAPNMKAMEKLESVRDKFQETSDEFEAARKRAKKAKQAFEQIKKERFDRFNACFESVATNIDEIYKALSRNSSAQAFLGPENPEEPYLDGINYNCVAPGKRFRPMDNLSGGEKTVAALALLFAIHSYKPAPFFVLDEIDAALDNTNIGKVANYIKEQSTCNFQAIVISLKEEFYTKAESLIGVYPEQGDCVISKVLTFDLTKYPDANPNPNEQ
B4: AAAT_HUMAN (protein, UniProt Q15758 1-541, looked up)
Neutral amino acid …: MVADPPRDSKGLAAAEPTANGGLALASIEDQGAAAGGYCGSRDQVRRCLRANLLVLLTVVAVVAGVALGLGVSGAGGALALGPERLSAFVFPGELLLRLLRMIILPLVVCSLIGGAASLDPGALGRLGAWALLFFLVTTLLASALGVGLALALQPGAASAAINASVGAAGSAENAPSKEVLDSFLDLARNIFPSNLVSAAFRSYSTTYEERNITGTRVKVPVGQEVEGMNILGLVVFAIVFGVALRKLGPEGELLIRFFNSFNEATMVLVSWIMWYAPVGIMFLVAGKIVEMEDVGLLFARLGKYILCCLLGHAIHGLLVLPLIYFLFTRKNPYRFLWGIVTPLATAFGTSSSSATLPLMMKCVEENNGVAKHISRFILPIGATVNMDGAALFQCVAAVFIAQLSQQSLDFVKIITILVTATASSVGAAGIPAGGVLTLAIILEAVNLPVDHISLILAVDWLVDRSCTVLNVEGDALGAGLLQNYVDRTESRSTEPELIQVKSELPLDPLPVPTEEGNPLLKHYRGPAGDATVASEKESVM
B5: SYIM_HUMAN (protein, UniProt Q9NSE4 49-1012, looked up)
Isoleucine--tRNA ligase, …: SNHQPNSNSGRYRDTVLLPQTSFPMKLLGRQQPDTELEIQQKCGFSELYSWQRERKVKTEFCLHDGPPYANGDPHVGHALNKILKDIANRFHMMNGSKIHFVPGWDCHGLPIEIKVLSELGREAQNLSAMEIRKKARSFAKAAIEKQKSAFIRWGIMADWNNCYYTFDGKYEAKQLRTFYQMYDKGLVYRSYKPVFWSPSSRTALAEAELEYNPEHVSRSIYVKFPLLKPSPKLASLIDGSSPVSILVWTTQPWTIPANEAVCYMPESKYAVVKCSKSGDLYVLAADKVASVASTLETTFETISTLSGVDLENGTCSHPLIPDKASPLLPANHVTMAKGTGLVHTAPAHGMEDYGVASQHNLPMDCLVDEDGVFTDVAGPELQNKAVLEEGTDVVIKMLQTAKNLLKEEKLVHSYPYDWRTKKPVVIRASKQWFINITDIKTAAKELLKKVKFIPGSALNGMVEMMDRRPYWCISRQRVWGVPIPVFHHKTKDEYLINSQTTEHIVKLVEQHGSDIWWTLPPEQLLPKEVLSEVGGPDALEYVPGQDILDIWFDSGTSWSYVLPGPDQRADLYLEGKDQLGGWFQSSLLTSVAARKRAPYKTVIVHGFTLGEKGEKMSKSLGNVIHPDVVVNGGQDQSKEPPYGADVLRWWVADSNVFTEVAIGPSVLNAARDDISKLRNTLRFLLGNVADFNPETDSIPVNDMYVIDQYMLHLLQDLANKITELYKQYDFGKVVRLLRTFYTRELSNFYFSIIKDRLYCEKENDPKRRSCQTALVEILDVIVRSFAPILPHLAEEVFQHIPYIKEPKSVFRTGWISTSSIWKKPGLEEAVESACAMRDSFLGSIPGKNAAEYKVITVIEPGLLFEIIEMLQSEETSSTSQLNELMMASESTLLAQEPREMTADVIELKGKFLINLEGGDIREESSYKVIVMPTTKEKCPRCWKYTAESSDTLCPRCAEVVSGK
B6: C1TC_HUMAN (protein, UniProt P11586 1-935, looked up)
C-1-tetrahydrofolate …: MAPAEILNGKEISAQIRARLKNQVTQLKEQVPGFTPRLAILQVGNRDDSNLYINVKLKAAEEIGIKATHIKLPRTTTESEVMKYITSLNEDSTVHGFLVQLPLDSENSINTEEVINAIAPEKDVDGLTSINAGKLARGDLNDCFIPCTPKGCLELIKETGVPIAGRHAVVVGRSKIVGAPMHDLLLWNNATVTTCHSKTAHLDEEVNKGDILVVATGQPEMVKGEWIKPGAIVIDCGINYVPDDKKPNGRKVVGDVAYDEAKERASFITPVPGGVGPMTVAMLMQSTVESAKRFLEKFKPGKWMIQYNNLNLKTPVPSDIDISRSCKPKPIGKLAREIGLLSEEVELYGETKAKVLLSALERLKHRPDGKYVVVTGITPTPLGEGKSTTTIGLVQALGAHLYQNVFACVRQPSQGPTFGIKGGAAGGGYSQVIPMEEFNLHLTGDIHAITAANNLVAAAIDARIFHELTQTDKALFNRLVPSVNGVRRFSDIQIRRLKRLGIEKTDPTTLTDEEINRFARLDIDPETITWQRVLDTNDRFLRKITIGQAPTEKGHTRTAQFDISVASEIMAVLALTTSLEDMRERLGKMVVASSKKGEPVSAEDLGVSGALTVLMKDAIKPNLMQTLEGTPVFVHAGPFANIAHGNSSIIADRIALKLVGPEGFVVTEAGFGADIGMEKFFNIKCRYSGLCPHVVVLVATVRALKMHGGGPTVTAGLPLPKAYIQENLELVEKGFSNLKKQIENARMFGIPVVVAVNAFKTDTESELDLISRLSREHGAFDAVKCTHWAEGGKGALALAQAVQRAAQAPSSFQLLYDLKLPVEDKIRIIAQKIYGADDIELLPEAQHKAEVYTKQGFGNLPICMAKTHLSLSHNPEQKGVPTGFILPIRDIRASVGAGFLYPLVGTMSTMPGLPTRPCFYDIDLDPETEQVNGLF

What follows are molecules tested on KDM4A-I71AzF (assay: CASI: photo-crosslinking with HEK293T cell extracts, StrepTactin enrichment and LC-MS/MS proteomics). Conditions: sheet "Final results but with 0.01".
Assay type: binding, human
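Further: lysates from HEK293T cells pretreated with a KDM4 inhibitor to raise proteome methylation, affinity-purified after ±UV, gel-resolved, trypsin-digested, with exclusive unique peptides per protein averaged per condition.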

Molecule	Fold change (+UV/-UV)
B1	0
B2	0.8462
B3	0.4286
B4	0.25
B5	4
B6	0.9444
